Measurements: PMC3498381, “Isolated Toll-like Receptor Transmembrane Domains Are Capable of Oligomerization” (PLoS ONE, 2012)
No end group written: not given here.

B1: TLR2 transmembrane domain (ToxR chimera) (domain or fragment)
chain: GNRASALVSGMCCALFLLILLTGVLCGSLIN
notes: flank encoded by the reading frame of the plasmid construct; Toll-like receptor 2 transmembrane domain, human, as identified by hydrophobic analysis; One molecule for the ToxR and the ToxR* form of this TMD; also called TLR2 TMD; wild type TLR2 TMD; source: E. coli FHK12, transformed with pTox7 or pTox6 plasmid, in the cells' membrane
B3: TLR1 transmembrane domain (ToxR chimera) (domain or fragment)
chain: GNRASITLLIVTIVATMLVLAVTVTSLCSYLGSLIN
notes: flank encoded by the reading frame of the plasmid construct; Toll-like receptor 1 transmembrane domain, human, as identified by hydrophobic analysis; One molecule for the ToxR and the ToxR* form of this TMD; also called TLR1 TMD; source: E. coli FHK12, transformed with pTox7 or pTox6 plasmid, in the cells' membrane
B4: TLR6 transmembrane domain (ToxR chimera) (domain or fragment)
chain: GNRASITLLIVTIGATMLVLAVTVTSLCIYLGSLIN
notes: flank encoded by the reading frame of the plasmid construct; Toll-like receptor 6 transmembrane domain, human, as identified by hydrophobic analysis; One molecule for the ToxR and the ToxR* form of this TMD; also called TLR6 TMD; source: E. coli FHK12, transformed with pTox7 or pTox6 plasmid, in the cells' membrane

Legend:
[1] = test system: heterotypic interactions of the TLR2 TMD; assay: Heterotypic ToxR assay of TLR2 point mutants; type: cell-based, E. coli; details: compared with native TLR2 TMD (Fig. 7B)
Excerpt: To investigate if these residues were involved in the homotypic or heterotypic interactions we performed site-directed mutagenesis at key positions in the TLR2 TMD – Gly593Val, Ala597Val, and Cys609Ile – and tested these mutants in both homotypic and heterotypic ToxR assays.
Figure 7 Toll-like Receptor 2 Interaction Interface Studied by Mutagenesis. TLR2 residues were mutated to study effects on homotypic and heterotypic interactions using the ToxR assay. These mutations were at positions identified in the sequence as likely interaction locations. (A) Homotypic interactions of point mutations show no difference in interaction potential from wild-type TLR2 TMD. (B) Heterotypic interactions of point mutations show the potential importance of both the Ala597 and Cys609 positions for heterotypic interactions. […]
For heterotypic interactions one plasmid containing a functional ToxR domain (200 ng) and a second plasmid containing a non-functional ToxR* domain (200 ng) were co-transformed into chemically competent FHK12 E. coli (400 µL) by incubating on ice for 30 min, heat shock at 42°C for 90 s, incubation on ice for 2 min, and addition of SOC media (1600 µL) followed by incubation with shaking for 1 h at 37°C. […] Analysis of activity was monitored as described in homotypic ToxR assays. […]

[2] = test system: homotypic TMD-TMD interaction (ToxR / ctx promoter / β-galactosidase reporter in FHK12 E. coli); assay: Homotypic ToxR reporter assay (β-galactosidase); type: cell-based; details: homotypic ToxR assay, compared with wild type TLR2 TMD (Fig. 7A)
Description: . Various plasmid constructs for this assay make it possible to monitor both homotypic and heterotypic interactions that are driven by TMD-TMD association (Fig. S1).
We first investigated homotypic interactions because the majority of the TLR family members function as homodimers. […] This ΔTM construct consists of the same maltose binding protein and ToxR domain, but lacks a TMD for proper membrane insertion (Fig. S2). Statistical analysis using the Tukey-Kramer test was performed to analyze any significant differences between all possible pairs of average interaction potentials (Table S2). […] Among the TLRs, no discernable differences in grouping based on statistical analysis at p = 0.05 were indicated as all receptors belonged to multiple groups, except for TLR1, which with the lowest interaction potential among the family of receptors only existed in one group (Table S1).
Figure 2 Toll-like Receptor Transmembrane Domain Homotypic Interactions. (A) The ToxR assay was used to study homotypic interactions of the TLR TMDs. A chimeric protein expressing the TMD of interest was monitored through β-galactosidase activity. In all cases, we saw that the TLRs have interaction potential solely from TMD-TMD interactions. Each TLR TMD interaction measurement analysis was performed on 3 technical replicates with >6 measurements for each replicate. Error bars depict the standard error of the mean (n – Table S1). Western blots staining for MBP were performed to monitor expression levels of the constructs – (B) chimeric maltose binding protein expression, (C) endogenous maltose binding protein expression. All samples were normalized to the GpA signal and expression levels.
Briefly, the ToxR plasmids containing the TMD of interest (200 ng) were transformed into chemically competent FHK12 E. coli (200 µL) by incubating on ice for 30 min, heat shock at 42°C for 90 s, incubation on ice for 2 min, and addition of SOC media (800 µL) followed by incubation with shaking for 1 h at 37°C. This transformation mixture (50 µL) was then spread on LB agar plates containing cholaramphenicol (30 µg/mL) and ampicillin (100 µg/mL) and grown overnight at 37°C. Single colonies were selected from the plates in triplicate and added to 5 mL of LB media containing cholaramphenicol (30 µg/mL), ampicillin (100 µg/mL), and arabinose (0.0025%). These cultures were incubated overnight (16–20 h) with shaking at 37°C. The β-galactosidase activity was monitored using a Beckman Coulter DTX 880 plate-reader. First 5 µL of each culture was plated >6 times in a clear 96-well flat bottom culture plate (Sarstedt) containing 100 µL of Z-buffer/chloroform (1% β-mercaptoethanol, 10% chloroform, 89% Z buffer: […], 10 mM potassium chloride, 1 mM magnesium sulfate, pH 7.0). The cell densities of each well were recorded by measuring the OD595. Bacteria were lysed by the addition of 50 µL Z-buffer/SDS (1.6% sodium dodecyl sulfate w/v in Z-buffer) and shaking at 28°C for 10 min. Enzymatic activity was measured by adding 50 µL of Z-buffer/ortho-Nitrophenyl-β-[…] (ONPG) (0.4% ONPG w/v in Z-buffer) and monitoring the reaction at 405 nm for a period of 20 min at 30 s intervals. Miller units were calculated using the equation: [drawing 1]
Western blotting was performed with antiserum recognizing the maltose-binding protein moiety of the constructs (Abcam). Data were normalized to GpA Miller Units and protein expression levels using ImageJ (NIH) as reported previously.

[3] = target: T1, TLR4 transmembrane domain (ToxR chimera); assay: heterotypic ToxR assay; details: chain shown with the change; competitor TLR4* (nonfunctional ToxR* chimera); PolyLeu* = 1.0; lower signal = more ToxR inhibition = more interaction; parent: est. 0.90; read off a plot
T1 chain: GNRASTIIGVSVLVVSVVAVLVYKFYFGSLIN

[4] = target: T2, TLR5 transmembrane domain (ToxR chimera); assay: heterotypic ToxR assay; details: chain shown with the change; competitor TLR5* (nonfunctional ToxR* chimera); PolyLeu* = 1.0; lower signal = more ToxR inhibition = more interaction; parent: est. 0.53; read off a plot
T2 chain: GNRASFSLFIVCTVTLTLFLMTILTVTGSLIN

[5] = target: T3, TLR10 transmembrane domain (ToxR chimera); assay: heterotypic ToxR assay; details: chain shown with the change; competitor TLR10* (nonfunctional ToxR* chimera); PolyLeu* = 1.0; lower signal = more ToxR inhibition = more interaction; parent: est. 0.41; read off a plot
T3 chain: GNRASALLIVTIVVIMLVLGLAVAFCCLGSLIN

[6] = target: T4, TLR1 transmembrane domain (ToxR chimera); assay: heterotypic ToxR assay; details: chain shown with the change; competitor TLR1* (nonfunctional ToxR* chimera); PolyLeu* = 1.0; lower signal = more ToxR inhibition = more interaction; parent: est. 0.47; read off a plot
T4 chain: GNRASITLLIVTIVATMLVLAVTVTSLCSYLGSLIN

[7] = target: T5, TLR6 transmembrane domain (ToxR chimera); assay: heterotypic ToxR assay; details: chain shown with the change; competitor TLR6* (nonfunctional ToxR* chimera); PolyLeu* = 1.0; lower signal = more ToxR inhibition = more interaction; parent: est. 0.24; read off a plot
T5 chain: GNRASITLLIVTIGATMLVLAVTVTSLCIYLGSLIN

[8] = target: T6, TLR2 transmembrane domain (ToxR chimera); assay: heterotypic ToxR assay; details: chain shown with the change; competitor TLR2* (nonfunctional ToxR* chimera); PolyLeu* = 1.0; lower signal = more ToxR inhibition = more interaction; parent: est. 0.42; read off a plot
T6 chain: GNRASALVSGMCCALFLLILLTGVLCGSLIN

[9] = target: T7, TLR2 transmembrane domain A597V (ToxR chimera), O60603; assay: homotypic ToxR assay; details: chain shown with the change; higher signal = more homotypic TMD association; parent: est. 1.0; read off a plot
T7 chain: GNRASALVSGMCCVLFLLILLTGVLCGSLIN

[10] = target: B4; assay: dominant-negative ToxR reporter assay; heterotypic; one TMD with functional ToxR (dominant phenotype) and one with non-functional ToxR* (negative phenotype) co-expressed in E. coli FHK12; interaction read as reduction of β-galactosidase signal; normalised to poly-Leu* and to expression levels; details: partners not purified
[11] = target: B3; assay: as above; details: partners not purified
[12] = target: B1; assay: as above; details: partners not purified

Which “Effect of TLR2 point mutation on heterotypic interactions” value [1] does the source give for “TLR2 A597V: TLR2 TMD ToxR construct with point mutation Ala597Val (GNRASALVSGMCCVLFLLILLTGVLCGSLIN; cysteine pairing not given here; also: fused to ToxR activation domain and maltose binding protein, ends not given here)” here?
Its value is “capable of reducing the ToxR inhibition demonstrated by the native TLR2 TMD”.

And the “Effect of TLR2 point mutation on homotypic interaction” value [2]?
Its value is “no mutation demonstrated significant difference from the wild type TLR2 TMD”.

“TLR2 C609I: TLR2 TMD ToxR construct with point mutation Cys609Ile (GNRASALVSGMCCALFLLILLTGVLIGSLIN; cysteine pairing not given here; also: fused to ToxR activation domain and maltose binding protein, ends not given here)” was tested. Which “Effect of TLR2 point mutation on heterotypic interactions” value [1] did it give?
The value was “capable of reducing the ToxR inhibition demonstrated by the native TLR2 TMD”.

And the “Effect of TLR2 point mutation on homotypic interaction” value [2]?
Its value is “no mutation demonstrated significant difference from the wild type TLR2 TMD”.

What does the source list for GNRASALVSGMCCVLFLLILLTGVLCGSLIN [TLR2 transmembrane domain (ToxR chimera) A597V]?
response (normalized Miller units) [3]: 1.1; response (normalized Miller units) [4]: 1; response (normalized Miller units) [5]: 1.2; response (normalized Miller units) [6]: 1; response (normalized Miller units) [7]: 0.82; response (normalized Miller units) [8]: 0.8; response (normalized Miller units) [9]: 1

With GNRASALVSVMCCALFLLILLTGVLCGSLIN [TLR2 transmembrane domain (ToxR chimera) G593V] as the molecule, how does the response (normalized Miller units) [3] read?
Its response (normalized Miller units) is 0.95.

And the response (normalized Miller units) [4]?
The response (normalized Miller units) was 0.48.

And the response (normalized Miller units) [5]?
The response (normalized Miller units) was 0.5.

And the response (normalized Miller units) [6]?
Its response (normalized Miller units) is 0.58.

And the response (normalized Miller units) [7]?
Its response (normalized Miller units) is 0.54.

And the response (normalized Miller units) [8]?
The response (normalized Miller units) was 0.44.

What does the source list for B1?
reduction in signal from the homotypic interaction [10]: > 60%; reduction in signal from the homotypic interaction [11]: > 60%

B2: TLR10 transmembrane domain (ToxR chimera) (domain or fragment, human)
chain: GNRASALLIVTIVVIMLVLGLAVAFCCLGSLIN
notes: flank encoded by the reading frame of the plasmid construct; Toll-like receptor 10 transmembrane domain, human, as identified by hydrophobic analysis; One molecule for the ToxR and the ToxR* form of this TMD; also called TLR10 TMD; source: E. coli FHK12, transformed with pTox7 or pTox6 plasmid, in the cells' membrane
B2 was tested. Which “reduction in signal from the homotypic interaction” value (“reduction in signal” for short) [12] did it give?
The value was greater than 60%.

What about the “reduction in signal” value [10] of the same molecule?
Its value is greater than 60%.

What about the “reduction in signal” value [11] of the same molecule?
Its value is greater than 60%.

What does the source list for B3?
reduction in signal from the homotypic interaction [12]: > 60%; reduction in signal from the homotypic interaction [10]: > 60%

Which “reduction in signal” value [12] does the source give for B4 here?
The value was greater than 60%.

And the “reduction in signal” value [11]?
The value was greater than 60%.
